This assay concerns the target T1, murine Class II MHC molecules on wild-type C57BL/6 mouse B cells (mouse, UniProt P14434 24-256; P14483 28-265).
T1 construct: whole, on cells; Endogenous MHC class II on B cells immobilised on streptavidin beads through biotinylated anti-CD19; also called mouse MHC class II
T1 sequence (MHC II alpha, looked up): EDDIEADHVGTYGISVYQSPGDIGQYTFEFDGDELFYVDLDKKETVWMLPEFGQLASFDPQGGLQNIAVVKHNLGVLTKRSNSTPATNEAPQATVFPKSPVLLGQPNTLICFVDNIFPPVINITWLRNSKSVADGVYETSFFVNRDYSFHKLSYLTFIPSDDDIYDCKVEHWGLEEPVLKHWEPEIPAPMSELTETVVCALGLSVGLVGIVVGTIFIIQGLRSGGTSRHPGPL
T1 sequence (MHC II beta, looked up): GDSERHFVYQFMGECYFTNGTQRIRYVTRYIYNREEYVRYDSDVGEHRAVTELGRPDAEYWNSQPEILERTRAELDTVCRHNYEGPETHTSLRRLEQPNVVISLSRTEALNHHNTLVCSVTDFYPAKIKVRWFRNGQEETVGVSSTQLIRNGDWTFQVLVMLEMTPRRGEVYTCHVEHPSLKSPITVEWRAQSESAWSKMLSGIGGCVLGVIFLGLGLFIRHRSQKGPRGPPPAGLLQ
Description: B cell-red blood cell binding assay: B cells on magnetic beads, bound red cells detected by anti-hemoglobin immunoblot. As for the experimental part:
FIG. 25 is a diagram showing conjugation of single domain antibody to engineered red blood cells and cell type-specific targeting. (A) Mouse mature red blood engineered to contain 3G-myc-GPA on the cell surface were incubated with. Sortase with or without VHH7-LPETG (SEQ ID NO: 44): a single domain antibody with binding specificity for mouse MHC class II molecules and sortase motif complementary to 3G. […] (B) Either wild type mouse B cells (expressing MHC class II) or B cells derived from MHC class II knock-out mice were immobilized on magnetic streptavidin beads via biotinylated α-CD19 antibody, incubated with 3G-myc-GPA red blood cells or red cells that contained sortase-labeled VHH7-LPETG (SEQ ID NO: 44)-myc GPA on their surface, and washed. Immobilization of B cells in all experimental set-ups was tested by presence of CD19 in α-CD19 immunoblot and binding between B cells and red blood cells was evaluated by the presence of hemoglobin in the α-hemoglobin immunoblot. (C) Schematic for experiment shown in (B); LPETG: (SEQ ID NO: 44).
A B cell—red blood cell binding assay was performed as follows. B cells were isolated from either wild-type C57BL/6 mice or mice knock-out for MI-IC class II using Dynabeads Mouse CD43 (Untouched B cells) (Life Technologies) according to manufacturer's recommendations. […]
(In general: Immunoblotting shows a protein as a band on a membrane.)

B1: 3G-myc-hGPA on the surface of mouse red blood cells, not labeled with VHH7 (other, human, not shown: small tags and cut ends)
chain (part 1 of 2): GGG
chain (part 2 of 2): LSTTEVAMHTSTSSSVTKSYISSQTNDTHKRDTYAATPRAHEVSEISVRTVYPPEEETGERVQLAHHFSEPEITLIIFGVMAGVIGTILLISYGIRRLIKKSPSDVKPLPSPDTDVPLSSVEIENPETSDQ
notes: mature; also called 3G-myc-GPA red blood cells; unmodified red cells
For B1, the binding result is listed as “no binding”.

The values above are taken from patent US20200069736A1 (WHITEHEAD INSTITUTE FOR BIOMEDICAL RESEARCH, published 2020).
